# Measurements taken from the supplement of paper PMC10567573.
# ± gives the standard deviation.
# Experiment: protein stability index of a GFP-peptide fusion (GPS, HEK-293T) (PSI 1-6); higher = more stable
# [1] = treatment: DMSO, c terminus: a fixed tail appended
# [2] = treatment: MLN4924 1 uM, 8 h, c terminus: a fixed tail appended
# [3] = treatment: DMSO, c terminus: native
# [4] = treatment: MLN4924 1 uM, 8 h, c terminus: native
# 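Also: 24-mer peptide tiles fused after GFP, lentivirally expressed, FACS-sorted into six equal bins by GFP/DsRed ratio, decoded by Illumina sequencing, PSI is the read-weighted mean bin number.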
Sequence,protein stability index [1],protein stability index [2],protein stability index [3],protein stability index [4]
AACLLQLKGVKQACCEFLESQLDP [KLHL12],2.97 ± 0.45,2.88 ± 0.33,–,–
AADRHINFCKEQAARISNKGKFST [ZC2HC1A],2.57 ± 0.28,2.85 ± 0.14,–,–
AAEVGTGQYATTKGISQTNLITTV [EPB41L3],3.54 ± 0.13,3.5 ± 0.41,–,–
AAFVRAQADLLAHLVPEPDRLEEQ [DNAAF3],4.05 ± 0.13,4.12 ± 0.29,–,–
AAGIGKLSTADGKAFADPEVLRRL [ANKRD17],4.2 ± 0.15,4.19 ± 0.41,–,–
AAGVDHVILAVSYMSQVLEKEMKA [GMPPB],2.25 ± 0.62,2.44 ± 0.23,–,–
AALCLEVTLKTAVDGPDLEMLTGQ [FKBP8],2.47 ± 0.38,2.49 ± 0.091,–,–
ACGGLDNKCSVYPLTFDKNENMAA [GNB5],3.69 ± 0.093,3.43 ± 0.41,–,–
ACTRSLLGDPPPLLTLPRPPLSGA [HDAC6],3.44 ± 0.37,3.58 ± 0.26,–,–
ADQTVLTEDEKKELENLAAMDLEL [CHGB],5.6 ± 0.28,5.61 ± 0.16,–,–
ADRIIEVDMECQTDAFLDRPPTPL [RSPH3],4.3 ± 0.29,4.25 ± 0.28,–,–
ADSETPTIQKGSYTFVPWLLSFKR [TNFSF13B],2.52 ± 0.28,2.58 ± 0.26,–,–
ADWWQEPDAKGDEAEAEPEPELA [P3H4],–,–,5.67 ± 0.21,5.42 ± 0.31
AEEAEILHSACGLSKDHQEVETEG [TOR1AIP2],5.45 ± 0.33,5.72 ± 0.24,–,–
AEKIEYNESMKAYHNSPAYLAYIN [SMARCE1],3.31 ± 0.5,3.46 ± 0.31,–,–
AEMLGSVVGNWQYFFPVIFSKASD [MAGEA6],2.37 ± 0.31,2.31 ± 0.31,–,–
AEMLRFGDRMFYRDWWNSTSFSNY [SOAT2],2.28 ± 0.52,2.02 ± 0.041,–,–
AFEESKIDEHHFVAVALRKPDGSR [AASDHPPT],4.01 ± 0.52,4.2 ± 0.53,–,–
AFFASHQCSNRIGSMKIKSSWDID [FBXO34],2.46 ± 0.15,2.42 ± 0.17,–,–
AFGNPKFALQGLPLNCAPCPRRSE [IRX6],4.202 ± 0.038,4.08 ± 0.13,–,–
AFNFLLVWYYCTLTIRESILINNG [TMEM120A],2.87 ± 0.055,3.15 ± 0.51,–,–
AFTMEQVRTLEGVFQHHQYLSPLE [VENTX],2.83 ± 0.16,2.28 ± 0.23,–,–

Sequence,protein stability index [1],protein stability index [2],protein stability index [3],protein stability index [4]
AGAGGSGSRISVSRSTSFRGGMGS [KRT18],3.88 ± 0.21,3.79 ± 0.28,–,–
AGKEAMTSDGYTALHLAARNGHLA [RIPK4],3.43 ± 0.69,3.85 ± 0.36,–,–
AGLCMDSPSPMDPHMAEQTFEQAI [CDC25B],4.5 ± 0.47,4.6 ± 0.15,–,–
AGSHQYPGRGVYLLKFDNSYSLWR [ACBD3],2.43 ± 0.25,2.22 ± 0.29,–,–
AGYRLGPAQPGADSSFPPALAEGY [TBX6],3.45 ± 0.38,3.62 ± 0.23,–,–
AHLAAEVEGKCLQSGFEMLKDVKS [TRIM39],4.17 ± 0.22,4.62 ± 0.28,–,–
AIDLNKKGKDNKHPMYRRLVHSAV [ZMYND11],2.46 ± 0.41,2.92 ± 0.38,–,–
AIPTKKSLPSPSSSGHQNRRFSSE [FBF1],4.82 ± 0.27,4.9 ± 0.15,–,–
AISSPTVSRLTDTTKFTGSHKERF [TPPP],4.17 ± 0.26,4.29 ± 0.12,–,–
AKDEDQWTALHFAAQNGDESSTRL [RIPK4],4.54 ± 0.95,5.086 ± 0.023,–,–
AKGASLFTCDLQHTETGEEVLRMC [VPS39],3.69 ± 0.055,3.73 ± 0.33,–,–
AKLALYPCASLLAFASTCLLSRFS [TMEM175],2.45 ± 0.49,2.52 ± 0.52,–,–
AKSVLKERGLKKIRLGIEGYPTYK [BTBD10],2.79 ± 0.23,2.8 ± 0.44,–,–
ALLITLIVVATLPIPVVFVLRHFH [SLC6A17],2.73 ± 0.52,2.33 ± 0.45,–,–
ANGSEIHKHVHFSSSFTSIASEWF [SLC22A15],2.44 ± 0.32,2.39 ± 0.36,–,–
APDKTSTVLTRHSQPATPTPLQSR [PDLIM7],4.68 ± 0.17,4.82 ± 0.23,–,–
APHQQPPAPPSDALLDLHFPSDHL [TFE3],4.65 ± 0.087,4.77 ± 0.057,–,–
APVAEAWIPQAGPPELNYGATGEC [ZNF449],4.78 ± 0.12,4.88 ± 0.33,–,–
AQRVRAAMFPETLDEGMQIPSTQF [CTNNB1],3.62 ± 0.23,3.65 ± 0.16,–,–
AQVRKLELERAQHELLLGSLQQQH [FBF1],3.62 ± 0.18,3.71 ± 0.17,–,–
ARFGSGPCKTRDDEPVCGRPLGIR [APMAP],3.75 ± 0.28,3.87 ± 0.35,–,–
ARLTYSIVGNQVQGAPASSFVYVN [PCDHGC5],2.38 ± 0.39,2.19 ± 0.26,–,–

Sequence,protein stability index [1],protein stability index [2],protein stability index [3],protein stability index [4]
ARLVFVPLLLLCNIKPRRYLTVVF [SLC29A1],2.92 ± 0.51,2.91 ± 0.87,–,–
ARMLREYQELMSLKLALDMEIATY [KRT71],2.19 ± 0.62,2.44 ± 0.21,–,–
ARTQMILLRRSVEGASSDNGCEVK [PHTF1],3.68 ± 0.24,3.98 ± 0.2,–,–
ASIHWDWKIALLFVAFALCMFCLY [SLC35F2],2.17 ± 0.36,2.26 ± 0.24,–,–
ASPMSADRVVAFMDHIRIFQEQVE [NR2F2],2.8 ± 0.44,3.1 ± 0.29,–,–
ASTVTEIVKQQDPLVYKAIQQGIN [ACSBG2],3.49 ± 0.3,3.96 ± 0.35,–,–
ATIENNRVILEIDNARLAVDDFRL [KRT13],2.15 ± 0.16,2.31 ± 0.35,–,–
ATSLFVELDEEEVKAATTEPTEVE [BCL2L13],5.48 ± 0.4,5.62 ± 0.12,–,–
ATTIDNSRVILEIDNARLAADDFR [KRT15],3.7 ± 0.31,3.74 ± 0.3,–,–
AVAVDVAVPKRLLEIVGREGVSLT [HAGHL],2.84 ± 0.23,2.84 ± 0.19,–,–
AVEISDHPGEHEVGEPEFHYIAGA [CPXM2],4.82 ± 0.57,5.17 ± 0.32,–,–
AVGYQPEYSKFCRMSYQDPAQLSC [NFE2L1],2.63 ± 0.41,2.2 ± 0.44,–,–
AVLASCSQYFRSLFSSHPPLGGGV [KLHL14],2.4 ± 0.37,2.22 ± 0.22,–,–
AVMEHAESKMYATSPYSDPVVSMD [PTPRD],4.3 ± 0.36,4.24 ± 0.53,–,–
CCEVETIRRAYPDANLLNDRVLRA [CCND1],2.86 ± 0.42,2.95 ± 0.23,–,–
CFSVSMLAGPNDRSDVEKGGKIIM [UFD1],2.92 ± 0.48,3.2 ± 0.52,–,–
CILVEMHTGEPLFSGSNEVDQMNR [DYRK1B],2.58 ± 0.07,2.58 ± 0.22,–,–
CKIRIQRQLEIMGKEVSGDQIEDM [STX11],4.01 ± 0.2,3.94 ± 0.12,–,–
CKLILSLEPDEDPLCMLLLIDHLA [TCF25],2.82 ± 0.53,2.95 ± 0.79,–,–
CKVDCEANLTPNVGGYFVDKFVAT [P3H4],2.84 ± 0.23,2.55 ± 0.29,–,–
CLRILMGELSNHHDHHDEFCLMP [BEX3],–,–,2.58 ± 0.69,2.27 ± 0.15
